T1: FLAG-LGR5-CD4™ (human, UniProt O75473 22-564)
T1 construct: domain: transmembrane domain; Transiently expressed on HEK 293 cells together with GFP; also called variant cell-surface LGR5 protein; cell-associated LGR5 construct; not shown: N-terminal FLAG tag; transmembrane domain of CD4
T1 sequence: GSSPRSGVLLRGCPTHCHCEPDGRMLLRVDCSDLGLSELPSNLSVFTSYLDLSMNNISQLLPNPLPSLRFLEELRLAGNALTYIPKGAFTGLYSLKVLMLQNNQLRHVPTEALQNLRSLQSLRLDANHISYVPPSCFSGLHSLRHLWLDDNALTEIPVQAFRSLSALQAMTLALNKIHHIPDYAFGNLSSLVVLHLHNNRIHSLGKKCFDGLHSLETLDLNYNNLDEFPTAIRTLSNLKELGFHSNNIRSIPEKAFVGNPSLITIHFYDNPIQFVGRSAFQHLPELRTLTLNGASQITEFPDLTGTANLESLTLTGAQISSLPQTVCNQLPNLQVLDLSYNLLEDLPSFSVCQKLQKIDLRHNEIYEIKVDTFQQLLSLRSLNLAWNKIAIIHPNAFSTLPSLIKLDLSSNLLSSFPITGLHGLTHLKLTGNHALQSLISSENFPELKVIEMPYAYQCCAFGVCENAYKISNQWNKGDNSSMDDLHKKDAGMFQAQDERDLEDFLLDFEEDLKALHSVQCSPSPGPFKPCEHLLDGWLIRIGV

B1: RSPO1-CD4™ (ligand)
chain: SRGIKGKRQRRISAEGSQACAKGCELCSEVNGCLKCSPKLFILLERNDIRQVGVCLPSCPPGYFDARNPDMNKCIKCKIEHCEACFSHNFCTKCKEGLYLHKGRCYPACPEGSSAANGTMECSSPAQCEMSEWSPWGPCSKKQQLCGFRRGSEERTRRVLHAPVGDHAACSDTKETRRCTVRRVPCPEGQKRRKGGQGRRENANRNLARKESKEAGAGSRRRKGQQQQQQQGTVGPLTSAGPA
notes: domain: transmembrane domain; Transiently expressed on HEK 293 cells together with GFP; also called cell-surface RSPO1; RSPO1-CD4TM; not shown: transmembrane domain of CD4

Tests used:
RSPO1-CD4™ = biological target: B1; assay: FACS, Fc fusion on HEK 293 cells transfected with RSPO1-CD4™ and GFP
Experimental: (§1) To determine the mechanism by which RSPO1 activates beta-catenin signaling, FACS analysis was used to assess binding between RSPO1 and LGR5. In certain embodiments, binding between soluble LGR5 and cell-surface RSPO1 was determined. A cell-surface RSPO1 protein was generated by ligating full-length human RSPO1 to the transmembrane domain of CD4 using standard recombinant DNA techniques (RSPO1-CD4™). HEK 293 cells were transiently transfected RSPO1-CD4™ and GFP. After 48 hours, cells were suspended in ice cold PBS containing 2% FCS and then incubated on ice in the presence of LGR5-Fc, LRP6-ECD-Fc (containing the extracellular domain of human LRP6 fused to an Fc domain), LRP6E1-2-Fc (containing amino acids 1-629 of human LRP6 fused to an Fc domain), or various FZD-Fc constructs, including FZD1-10. […] Only a weak interaction between RSPO1 and the WNT co-receptor LRP6 was detected.

FLAG-LGR5-CD4™ = biological target: T1, FLAG-LGR5-CD4™; assay: FACS, Fc fusion on HEK 293 cells transfected with FLAG-LGR5-CD4™ and GFP, with heparin
Experimental: In certain embodiments, binding between soluble RSPO1 and cell-surface LGR5 was determined. A variant cell-surface LGR5 protein was generated by ligating amino acids 22-564 of LGR5 to an N-terminal FLAG tag and to the transmembrane domain of CD4 using standard recombinant DNA techniques (FLAG-LGR5-CD4™). HEK 293 cells were transiently transfected with FLAG-LGR5-CD4™ and GFP. After 48 hours, cells were suspended in ice cold PBS containing 2% FCS and heparin and then incubated on ice in the presence of RSPO1-Fc, FZD8-Fc, or a FLAG antibody as a positive control.

FZD7-Fc = FZD7-Fc (UniProt O75084 33-170); assay: FACS, Fc fusion on HEK 293 cells transfected with RSPO1-CD4™ and GFP
Experimental: as §1

FZD1-Fc = biological target: T2, FZD1-Fc (UniProt Q9UP38 87-237); assay: as above
T2 construct: One of the 'various FZD-Fc constructs, including FZD1-10'; not shown: Fc
Experimental: as §1

FZD2-Fc = FZD2-Fc (UniProt Q14332 24-159); assay: as above
Experimental: as §1

Row | binding result (RSPO1-CD4™) | Binder | also measured
1 | no binding | FZD4-Fc (Fc fusion, UniProt Q9ULV1 40-170, looked up, One of the 'various FZD-Fc constructs, including FZD1-10'; not shown: Fc) EEERRCDPIRISMCQNLGYNVTKMPNLVGHELQTDAELQLTTFTPLIQYGCSSQLQFFLCSVYVPMCTEKINIPIGPCGGMCLSVKRRCEPVLKEFGFAWPESLNCSKFPPQNDHNHMCMEGPGDEEVPLP | –
2 | no binding | FZD8-Fc (Fc fusion, UniProt Q9H461 28-158, looked up, One of the 'various FZD-Fc constructs, including FZD1-10'; also used against FLAG-LGR5-CD4™ cells; also called soluble FZD8; not shown: Fc) ASAKELACQEITVPLCKGIGYNYTYMPNQFNHDTQDEAGLEVHQFWPLVEIQCSPDLKFFLCSMYTPICLEDYKKPLPPCRSVCERAKAGCAPLMRQYGFAWPDRMRCDRLPEQGNPDTLCMDYNRTDLTT | binding result (FLAG-LGR5-CD4™): no binding
3 | – | B1 | binding result (FZD7-Fc): no binding; binding result (FZD1-Fc): no binding; binding result (FZD2-Fc): no binding
4 | no binding | FZD10-Fc (Fc fusion, UniProt Q9ULW2 21-154, looked up, One of the 'various FZD-Fc constructs, including FZD1-10'; also called soluble FZD10; not shown: Fc) ISSMDMERPGDGKCQPIEIPMCKDIGYNMTRMPNLMGHENQREAAIQLHEFAPLVEYGCHGHLRFFLCSLYAPMCTEQVSTPIPACRVMCEQARLKCSPIMEQFNFKWPDSLDCRKLPNKNDPNYLCMEAPNNG | –
5 | no binding | FZD6-Fc (Fc fusion, UniProt O60353 19-146, looked up, One of the 'various FZD-Fc constructs, including FZD1-10'; not shown: Fc) HSLFTCEPITVPRCMKMAYNMTFFPNLMGHYDQSIAAVEMEHFLPLANLECSPNIETFLCKAFVPTCIEQIHVVPPCRKLCEKVYSDCKKLIDTFGIRWPEELECDRLQYCDETVPVTFDPHTEFLGP | –
6 | no binding | FZD5-Fc (Fc fusion, UniProt Q13467 27-157, looked up, One of the 'various FZD-Fc constructs, including FZD1-10'; not shown: Fc) ASKAPVCQEITVPMCRGIGYNLTHMPNQFNHDTQDEAGLEVHQFWPLVEIQCSPDLRFFLCSMYTPICLPDYHKPLPPCRSVCERAKAGCSPLMRQYGFAWPERMSCDRLPVLGRDAEVLCMDYNRSEATT | –
7 | no binding | FZD9-Fc (Fc fusion, UniProt O00144 23-159, looked up, One of the 'various FZD-Fc constructs, including FZD1-10'; not shown: Fc) LEIGRFDPERGRGAAPCQAVEIPMCRGIGYNLTRMPNLLGHTSQGEAAAELAEFAPLVQYGCHSHLRFFLCSLYAPMCTDQVSTPIPACRPMCEQARLRCAPIMEQFNFGWPDSLDCARLPTRNDPHALCMEAPENA | –
8 | no binding | FZD3-Fc (Fc fusion, UniProt Q9NPG1 23-143, looked up, One of the 'various FZD-Fc constructs, including FZD1-10'; not shown: Fc) HSLFSCEPITLRMCQDLPYNTTFMPNLLNHYDQQTAALAMEPFHPMVNLDCSRDFRPFLCALYAPICMEYGRVTLPCRRLCQRAYSECSKLMEMFGVPWPEDMECSRFPDCDEPYPRLVDL | –

Source: US20090074782A1 (ONCOMED PHARMACEUTICALS, published 2009)
